One substance from article PMC11325027 can be followed below.

Values joined by “and” are separate entries in the source; they are usually repeats but may differ in a detail not shown here. Identical values can stand only once.

In general, Kd refers to a measure of binding affinity in units of concentration.

Assay [1] addresses E. coli initiation factor 2 (IF2) (E. coli) (UniProt P0A705). In words: BLI; biotinylated protein ([…] load) immobilised on High Precision Streptavidin (SAX) tips, E. coli 70S ribosome as analyte; Octet RED96e, 30 °C, 1,000 rpm; ribosome buffer 20 mM Tris HCl pH 7.5, 60 mM NH4Cl, 7.5 mM Mg(CH3COO)2, 0.5 mM EDTA, 6 mM βME with 0.1% BSA and 0.02% Tween-20; IF2 pre-incubated with GDPNP; Kd from the fit of equilibrium responses, double-referenced. (In general: Biolayer interferometry detects binding as a change in optical thickness at a sensor tip.)

In assay [2] the target is P. falciparum translation enhancing factor C-terminal domain (PTEF-CTD) (P. falciparum). The description is as above.

As for E. coli 70S ribosome (complex), the Kd in assay [1] is 0.0093 µM and 0.0027 µM and 0.0015 µM; in assay [2], 0.426 µM and 0.313 µM and 0.515 µM.
